Results as given in PMC8943062.

What was measured:
[1] = molecular target: closed-gate E71V KcsA channel (chymotrypsin-truncated) (UniProt P0A334); assay: crystal structure; KcsA-Fab complex (formed from purified channel in DM and Fab, excess Fab removed by SEC) concentrated to 15 mg/ml, crystallised in 50 mM magnesium acetate, 50 mM sodium acetate pH 5.5, 25% PEG 400 at 20 °C; one monomer in the asymmetric unit
[2] = molecular target: open-gate E71V KcsA channel (chymotrypsin-truncated, TM1 and TM2 cross-linked by C28-C118 disulfides) (UniProt P0A334); assay: as above

| Substance | stoichiometry N [1] | stoichiometry N [2] |
| --- | --- | --- |
| closed-gate E71V KcsA channel (chymotrypsin-truncated) (from UniProt P0A334 1-160) (natural protein) | 4 |  |
| open-gate E71V KcsA channel (chymotrypsin-truncated, TM1 and TM2 cross-linked by C28-C118 disulfides) (from UniProt P0A334 1-160) (natural protein) |  | 4 |
